B1: 2D10 (human) (antibody, human IgG4 S228P, kappa, V domains shown)
VH: EVQLVESGGGLVQPGGSLRLSCAASGFTFSNYAMNWVRQAPGKGLEWVSTISGSGGATRYADSVKGRFTISRDNSRNTVYLQMNSLRVEDTAVFYCTKDRLIMATVRGPYYYGMDVWGQGTTVTVSS
VL: DIQMTQSPSSLSASVGDRVTITCRASQSISSYLNWYQQKPGKAPNLLIYAASSLQSGVPSRFSGSGSETDFTLTISSLQPEDFATYYCQQSHSVSFTFGPGTKVDIKR
notes: Fully human recombinant IgG4-PE (Ser228Pro, Leu235Glu) with human kappa light chain, expressed in CHO-S; also called 02D10; 2D10 IgG4PE
B2: 9H04 (hybridoma) (antibody, V domains shown)
VH: QVQLVESGGGLVKPGGSLRLSCAASRFTLSDYYMTWIRQAPGKGLEWVSYISSSGNTIYYADSVKGRFTISRDNAKNSLYLQMNSLRAEDTAVYYCARDLSGSYWDYYYGMDVWGQGTTVTVSS
VL: AIQLTQSPSSLSTSVGDRVTIACRASQGINNALAWYQQKPGKAPKLLIYDASSLESGVPSRFSGSGSGTDFTLTISSLQPEDFATYYCQQFNSYPRTFGQGTKVEIK
notes: Purified from hybridoma supernatant as a murine/human chimeric antibody (human variable domains, mouse constant regions); also called 09H04
B3: 19H01 (hybridoma) (antibody, V domains shown)
VH: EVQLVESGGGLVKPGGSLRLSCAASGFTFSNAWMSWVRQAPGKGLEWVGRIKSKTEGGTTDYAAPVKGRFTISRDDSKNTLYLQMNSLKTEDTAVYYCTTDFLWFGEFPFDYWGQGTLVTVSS
VL: DIQMTQSPSSLSASVGDRVTITCRASQGISNYLAWYQQKPGKIPKLLIYAASTLQSGVPSRFSGSGSGTDFTLTISSLQPEDVATYYCQKYNSAPRTFGQGTKVEIK
notes: Purified from hybridoma supernatant as a murine/human chimeric antibody (human variable domains, mouse constant regions)

Tests used:
[1] = target: T1, Recombinant Human OX40L (Leader sequence, Isoleucine Zipper and FLAG Sequence Included) (human); assay: HTRF ligand/receptor neutralisation, biotinylated hOX40L with OX40RFc-AF647 as competitor; mean of three experiments
T1 construct: In-house construct: extracellular domain of human OX40L with a FLAG motif and an isoleucine zipper to aid trimerisation; It was used biotinylated in the HTRF assays and unlabelled in SPR and the T-cell assay; also called hOX40L; biotinylated OX40L
T1 sequence (chain, as listed by the source limits assumed): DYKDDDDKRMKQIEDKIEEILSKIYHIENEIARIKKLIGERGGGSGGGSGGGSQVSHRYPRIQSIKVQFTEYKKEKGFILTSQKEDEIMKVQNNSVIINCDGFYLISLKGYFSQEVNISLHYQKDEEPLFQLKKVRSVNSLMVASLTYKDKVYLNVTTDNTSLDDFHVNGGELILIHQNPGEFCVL

[2] = target: T1, Recombinant Human OX40L (Leader …); assay: cell-based or functional assay
[3] = target: T1, Recombinant Human OX40L (Leader …); assay: SPR (ProteOn XPR36), antibody captured on anti-mouse IgG, OX40L at 256 nM, 1:1 model, apparent affinity, 25 C

Row | Binder | IC50 [1] [nM] | Primary T-cell Assay IC50 (recombinant OX40L induced IL2 release from primary human T-cells) [2] [nM] | Kd [3] [nM]
1 | B1 | 0.75 | 0.81 | 
2 | B2 |  |  | 5.3
3 | B3 |  |  | 2.2

— patent EP3265123B1 (Kymab Limited, dated 2022)
